Patent publication US20210396736A1, “SCREENING ASSAY” (The University of Bath, priority 2018, published 2021)

B1: Acidic FosW: library-derived peptide able to dissociate the cJun bZIP protein from the TRE sites in TRE mDHFR (peptide)
peptide: MASLEQRAEELARENEELEKEAEELEQELDELQAEIEQLEERNYALRKEIEDLQKQLEKLGAP

Legend:
[1] = biological target: T1, cJun bZIP (Homo sapiens, UniProt P05412, S292Y); assay: Further TBS assay experiment, Example 3 (colony count, FIG. 3); format: cell-based; conditions: for rescue of DHFR expression / change in number of colonies compared to plate 2: co-expressed with TRE mDHFR and cJun bZIP
T1 construct: cJun with the basic region and leucine zipper (cJun bZip); expressed in transfected cells
Text: This experiment used similar plasmids to those set out in Example 1, with the exception that pET24a was used to express both the lac repressor and test compound using a single plasmid. Specifically, three plasmids were used: i) p300d expressing the mDHFR gene modified to include 15 TREs (TRE mDHFR, generated as described in Example 1); ii) p230d expressing either the leucine zipper part of cJun (cJun LZ) or cJun with the basic region and leucine zipper (cJun bZip); iii) pET24a expressing the lac repressor and either the leucine zipper part of cFos (cFos LZ) or the acidic FosW peptide (acidic FosW).
Plates were generated as set out in the following table:
The number of colonies produced in each plate were counted and this quantification is illustrated in FIG. 3.

[2] = test system: AP-1; assay: AP-1 driven luciferase gene reporter assay; format: cell-based, mammalian; conditions: transfected, versus control and dummy vector; FIG. 2
Text: Wild-type AP-1 proteins have a long stretch of basic amino acids at the N-terminal of the protein which enables DNA binding. Acidic versions of AP-1 proteins can be generated with a long stretch of negatively charged amino acids (in place of the positive) which can serve as a DNA mimic. Acidic AP-1 peptide variants can therefore form heterodimers with wild type AP-1 proteins driven by both the dimerization motif and the negative/positive charge interaction, resulting in their sequestration from the DNA.
In order to test whether the peptides identified as being functional antagonists in the TBS assay are also likely to have the same activity in eukaryotic cells, a AP-1 driven luciferase gene reporter assay was carried out. This assay was carried out using no transfection (control), transfected dummy vector, acidic c-Jun, acidic c-Fos and library-derived peptide treated (FosW).

[3] = co-expressed with TRE mDHFR and cJun bZIP (plates 2 and 3)

T1 sequence (P05412 252-315 S292Y limits assumed): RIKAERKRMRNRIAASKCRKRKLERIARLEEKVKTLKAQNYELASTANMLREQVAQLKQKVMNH

Row | Molecule | rescue of DHFR expression / change in number of colonies compared to plate 2 [1] | number of bacterial colonies [1, 3] | number of bacterial colonies ([1]; control plate 1: co-expressed with TRE mDHFR and cJun LZ (no basic DNA-binding region)) | AP-1 driven luciferase activity [2]
1 | cFos LZ: the leucine zipper part of cFos; binds the coiled-coil region of cJun (MASTDTLQAETDQLEDEKYALQTEIANLLKEKEKLGAP) | not able to rescue expression of the DHFR protein | < 20 colonies | > 300 colonies | 
2 | B1 | substantial increase in the number of colonies | > 200 colonies |  | dramatic reduction in the signal
